From patent publication US20160362472A1 (published 2016)

Tests used:
CD22-FL-Fc [1] = target: T1, CD22-FL-Fc (UniProt P20273 20-687); assay: NFAT-luciferase activation of CAR JNL cells on plates coated with CD22-FL-Fc, CD22-D567-Fc or CD22-D67
T1 construct: domain: full-length with all 7 external domains; also called CD22 full length-Fc; CD22 full-length with all 7 external domains; not shown: Fc part not described
Method: (§1) Briefly the experiments were performed as follows. A lentiviral vector (pELPS) carrying a nucleic acid, encoding a CD22 CAR with a CD22-binding scFv domain was introduced by electroporation into a Jurkat T cell line modified to express luciferase under the control of an NFAT response element (JNL). The cells were cultured and allowed to express the CAR construct. The electroporated cells were applied to a plate coated with the target antigen (CD22). Detection of luciferase signal in the coated plate was indicative of binding activity of the CD22 CAR to its antigen, leading to activation of the T cells and expression of luciferase.
Three different target proteins (CD22-FL-Fc, CD22-D567-Fc, and CD22-D67) were used to coat the tissue culture plates; a negative control (Fc) was also included. A mesothelin binding CAR (Meso-G07) was used as a negative control. […] Domain mapping was performed on CD22 binding domains. Three different forms of antigens were used: CD22 full-length with all 7 external domains, Domain567 (in which domains 1-4 were deleted) and Domain67 (in which domains 1-5 were deleted).

[2] = target: CD123 on target cells (MOLM14, MOLM13, primary B-ALL blasts) (human), P26951; assay: cell-based or functional assay
Chain of CD123 on target cells (MOLM14, MOLM13, primary B-ALL blasts) (human), P26951 (P26951 19-378): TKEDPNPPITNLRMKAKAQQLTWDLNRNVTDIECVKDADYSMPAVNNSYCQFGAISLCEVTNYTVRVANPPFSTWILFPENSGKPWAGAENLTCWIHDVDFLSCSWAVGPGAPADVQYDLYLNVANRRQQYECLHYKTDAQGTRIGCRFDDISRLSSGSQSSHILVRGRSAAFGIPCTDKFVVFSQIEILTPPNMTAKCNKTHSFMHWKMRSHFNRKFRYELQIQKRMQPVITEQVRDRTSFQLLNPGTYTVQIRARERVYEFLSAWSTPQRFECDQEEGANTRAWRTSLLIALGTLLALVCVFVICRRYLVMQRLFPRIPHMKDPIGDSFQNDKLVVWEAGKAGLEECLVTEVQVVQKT

CD22-FL-Fc [3] = target: T1, CD22-FL-Fc; assay: NFAT-luciferase activation of CAR JNL cells on plates coated with CD22 full length-Fc, CD22 D567-Fc or Fc only
Method: as §1
CAR constructs containing these scFvs were tested for activity in an NFAT assay as described above. […] The bars in the figure represent, from left to right, CD22 full length-Fc; CD22 D567-Fc; and an Fc only negative control used for coating of the plates.

Binder | binding result (CD22-FL-Fc [1]) | other results
CAR22-62 (scFv, scFv domain of a CAR expressed on JNL cells; also called CD22-62) scFv: EVQLQQSGPGLVKPSQTLSLTCAISGDSVLSNSDTWNWIRQSPSRGLEWLGRTYHRSTWYDDYASSVRGRVSINVDTSKNQYSLQLNAVTPEDTGVYYCARDRLQDGNSWSDAFDVWGQGTMVTVSSGGGGSGGGGSGGGGSQSALTQPASVSGSPGQSITISCTGTSSDVGGYNYVSWYQQHPGKAPKLMIYDVSNRPSGVSNRFSGSKSGNTASLTISGLQAEDEADYYCSSYTSSSTLYVFGTGTKVTVLG | binds | 
CAR22-61 (scFv, scFv domain of a CAR expressed on JNL cells; also called CD22-61) scFv: QVQLQESGPGLVKPSQTLSLTCAISGDSVLSNSDTWNWIRQSPSRGLEWLGRTYHRSTWYDDYASSVRGRVSINVDTSKNQYSLQLNAVTPEDTGVYYCARDRLQDGNSWSDAFDVWGQGTMVTVSSGGGGSGGGGSGSGGSQSALTQPASVSGSPGQSITISCTGTSSDVGGYNYVSWYQQHPGKAPKLMIYEVSNRPSGVSNRFSGSKSGNTASLTISGLQAEDEADYYCSSYTSSSTLYVFGTGTKVTVLG | binds | 
CAR22-60 (scFv, scFv domain of a CAR expressed on JNL cells; also called CD22-60) scFv: EVQLQQSGPGLVKPSQTLSLTCAISGDSVLSNSDTWNWIRQSPSRGLEWLGRTYHRSTWYDDYASSVRGRVSINVDTSKNQYSLQLNAVTPEDTGVYYCARDRLQDGNSWSDAFDVWGQGTMVTVSSGGGGSGGGGSGSGGSQSALTQPASVSGSPGQSITFSCTGTSSDIGGYNYVSWYQQHPGKAPKLMIYEVSNRPSGVSNRFSGTKSGNTASLTISGLQAEDEADYYCSSYTSSSTLYVFGTGTKLTVLG | binds | 
CAR22-59 (scFv, scFv domain of a CAR expressed on JNL cells; also called CD22-59) scFv: EVQLQQSGPGLVKPSQTLSLTCAISGDSVLSNSDTWNWIRQSPSRGLEWLGRTYHRSTWYDDYASSVRGRVSINVDTSKNQYSLQLNAVTPEDTGVYYCARDRLQDGNSWSDAFDVWGQGTMVTVSSGGGGSGGGGSGGGGSQSALTQPASVSGSPGQSITISCTGSSSDIGGFNYVSWYQQHAGEAPKLMIYEVTNRPSGVSDRFSGSKSDNTASLTISGLQAEDEADYYCSSYASGSPLYVFGTGTKVTVLG | binds | 
CAR22-63 (scFv, scFv domain of a CAR expressed on JNL cells; also called CD22-63) scFv: EVQLQQSGPGLVKPSQTLSLTCAISGDSVLSNSDTWNWIRQSPSRGLEWLGRTYHRSTWYDDYASSVRGRVSINVDTSKNQYSLQLNAVTPEDTGVYYCARDRLQDGNSWSDAFDVWGQGTMVTVSSGGGGSGGGGSGGGGSQSALTQPASVSGSPGQSITISCTGTSSDVGGYNYVSWYQQHPGKAPKLMIYEVSNRPSGVSNRFSGSKSGNTASLTISGLQAEDEADYYCSSYTSSSTLYIFGTGTKVTVLG | binds | 
CAR22-53 (scFv, scFv domain of a CAR on JNL cells or T cells; also called CD22-53; hCD22-53) scFv: EVQLQQSGPGLVKPSQTLSLTCAISGDSVSSNSAAWNWIRQSPSRGLEWLGRTYYRSKWYSDYAVSVKSRITINPDTSKNQFSLQLNSVTPEDTAVYYCARDPYDFWSGYPDAFDIWGQGTMVTVSSGGGGSGGGGSGGGGSQSALTQPASVSGSPGQSITISCTGTSSDVGGYNYVSWYQQHPGKAPKVIISEVNNRPSGVSHRFSGSKSGNTASLTISGLQAEDEADYFCSSYTSGRTLYVFGTGSKVTVLG | binds | 
CAR123-3 (scFv, V domains shown) VH: QVQLVQSGAEVKKPGASVKVSCKASGYIFTGYYIHWVRQAPGQGLEWMGWINPNSGGTNYAQKFQGRVTMTRDTSISTAYMELSGLRSDDPAVYYCARDMNILATVPFDIWGQGTLVTVSS VL: DIQLTQSPSSLSASVGDRVTITCRASQSISSYLNWYQQKPGKAPKLLIYAASSLQSGVPSRFSGSGSGTDFTLTVNSLQPEDFATYYCQQGDSVPLTFGGGTKVEIK |  | CD107a degranulation, 2-hr in vitro assay [2]: 80%
CAR123-4 (scFv, V domains shown) VH: QVQLQQSGAEVKKSGASVKVSCKASGYTFTDYYMHWLRQAPGQGLEWMGWINPNSGDTNYAQKFQGRVTLTRDTSISTVYMELSRLRSDDTAVYYCARDMNILATVPFDIWGQGTMVTVSS VL: DIQMTQSPSSLSASVGDRVTITCRASQSISSYLNWYQQKPGKAPKLLIYAASSLQSGVPSRFSGSGSGTDFTLTISSLQPEDFATYYCQQGDSVPLTFGGGTKVEIK |  | CD107a degranulation, 2-hr in vitro assay [2]: 80%
CAR22-58 (scFv, scFv domain of a CAR expressed on JNL cells; also called CD22-58) scFv: EVQLQQSGPGLVNPSQTLSITCAISGDSVSSNSAAWNWIRQSPSRGLEWLGRTFYRSKWYNDYAVSVKGRITISPDTSKNQFSLQLNSVTPEDTAVYYCAGGDYYYGLDVWGQGTTVTVSSGGGGSGGGGSGGGGSQSALTQPASVSGSPGQSITISCTGSSSDVGGYNSVSWYQQHPGKAPKLMIYEVINRPSGVSHRFSGSKSGNTASLTISGLQAEDEADYYCSSYTSSSTYVFGTGTKVTVLG | binds | 
CAR22-12 (scFv, scFv domain of a CAR on T cells or JNL cells; also called CD22 CAR clone 12; hCD22-12) scFv: EVQLQQSGPGLVKPSQTLSLTCAISGDSVLSNSDTWNWIRQSPSRGLEWLGRTYHRSTWYDDYASSVRGRVSINVDTSKNQYSLQLNAVTPEDTGVYYCARDRLQDGNSWSDAFDVWGQGTMVTVSSGGGGSGGGGSGGGGSQSALTQPASASGSPGQSVTISCTGTSSDVGGYNYVSWYQQHPGKAPKLMIYDVSNRPSGVSNRFSGSKSGNTASLTISGLQAEDEADYYCSSYTSSSTLYVFGTGTQLTVL | binds | 
CAR22-64 (scFv, also called CD22-64) scFv: EVQLQQSGPGLVKPSQTLPLTCAISGDSVLSNSDTWNWIRQSPSRGLEWLGRTYHRSTWYDDYASSVRGRVSINVDTSKNQYSLQLNAVTPEDTGVYYCARVRLQDGNSWSDAFDVWGQGTMVTVSSGGGGSGGGGSGGGGPQSALTQPASASGSPGQSVTISCTGTSSDVGGYNYVSWYQQHPGKAPKLMIYDVSNRPSGVSNRFSGSKSGNTASLTISGLQAEDEADYYCSSYTSSSTLYVFGTGTQLTVL |  | binding result (CD22-FL-Fc [3]): binds
CAR22-65 (scFv, also called CD22-65) scFv: EVQLQQSGPGLVKPSQTLSLTCAISGDSMLSNSDTWNWIRQSPSRGLEWLGRTYHRSTWYDDYASSVRGRVSINVDTSKNQYSLQLNAVTPEDTGVYYCARVRLQDGNSWSDAFDVWGQGTMVTVSSGGGGSGGGGSGGGGSQSALTQPASASGSPGQSVTISCTGTSSDVGGYNYVSWYQQHPGKAPKLMIYDVSNRPSGVSNRFSGSKSGNTASLTISGLQAEDEADYYCSSYTSSSTLYVFGTGTQLTVL |  | binding result (CD22-FL-Fc [3]): binds
CAR 22-57 (scFv, scFv domain of a CAR expressed on JNL cells; also called CD22-57) scFv: EVQLQQSGPGLVKPSQTLSLTCAISGDSVSNNNAAWNWIRQSPSRGLEWLGRTYHRSTWYNDYVGSVKSRITINPDTSKNQFSLQLNSVTPEDTAVYYCARETDYGDYGAFDIWGQGTTVTVSSGGGGSGGGGSGGGGSQSALTQPASVSGSPGQSITISCTGSRNDIGAYESVSWYQQHPGNAPKLIIHGVNNRPSGVFDRFSVSQSGNTASLTISGLQAEDEADYYCSSHTTTSTLYVFGTGTKVTVLG | binds | 
